# In publication PMC5430804, “Structural and biochemical insights of CypA and AIF interaction” (Scientific Reports, 2017):
# B1: AIF(370-394) synthetic peptide (peptide, UniProt O95831 370-394, looked up)
# peptide: QSVGVSSGKLLIKLKDGRKVETDHI
# notes: also called AIF peptide; source: synthetic peptide
# B2: CypA(121-131) + (99–109), two peptides tested in combination (other)
# peptide 1: WLDGKHVVFGK
# peptide 2: SMANAGPNTNG
# notes: Cyclophilin A (CypA), residues 99-109; A mixture of separate peptides; source: synthetic peptides, combined
# B3: CypA(121-131) + (99–109) + (83-90), three peptides tested in combination (other)
# peptide 1: WLDGKHVVFGK
# peptide 2: SMANAGPNTNG
# peptide 3: FEDENFIL
# notes: Cyclophilin A (CypA), residues 99-109; Cyclophilin A (CypA), residues 83-90; A mixture of separate peptides; source: synthetic peptides, combined; copies: + +
# B4: CypA(55-69) + (67–79), two peptides tested in combination (other)
# peptide 1: RIIPGFMCQGGDFTR
# peptide 2: FTRHNGTGGKSIY
# notes: Cyclophilin A (CypA), residues 55-69; Cyclophilin A (CypA), residues 67-79; A mixture of separate peptides; source: synthetic peptides, combined
# B5: CypA(67-79) + (49–62), two peptides tested in combination (other)
# peptide 1: FTRHNGTGGKSIY
# peptide 2: KGSCFHRIIPGFMC
# notes: Cyclophilin A (CypA), residues 67-79; Cyclophilin A (CypA), residues 49-62; A mixture of separate peptides; source: synthetic peptides, combined
# B6: CypA(55-69) + (67–79) + (49-62), three peptides tested in combination (other)
# peptide 1: RIIPGFMCQGGDFTR
# peptide 2: FTRHNGTGGKSIY
# peptide 3: KGSCFHRIIPGFMC
# notes: Cyclophilin A (CypA), residues 55-69; Cyclophilin A (CypA), residues 67-79; Cyclophilin A (CypA), residues 49-62; A mixture of separate peptides; source: synthetic peptides, combined; copies: + +
# B7: CypA(55-69) peptide with R69 replaced by alanine (peptide, UniProt P62937 55-69, looked up)
# peptide: RIIPGFMCQGGDFTA
# notes: Cyclophilin A (CypA), residues 55-69, R69 replaced by alanine; also called CypA(55-69)R69; source: synthetic peptide
# B8: CypA(121-131) + (83–90), two peptides tested in combination (other)
# peptide 1: WLDGKHVVFGK
# peptide 2: FEDENFIL
# notes: Cyclophilin A (CypA), residues 83-90; A mixture of separate peptides; source: synthetic peptides, combined
# B9: CypA(55-69) + (49–62), two peptides tested in combination (other)
# peptide 1: RIIPGFMCQGGDFTR
# peptide 2: KGSCFHRIIPGFMC
# notes: Cyclophilin A (CypA), residues 55-69; Cyclophilin A (CypA), residues 49-62; A mixture of separate peptides; source: synthetic peptides, combined
# B10: CypA(99-109) + (83–90), two peptides tested in combination (other)
# peptide 1: SMANAGPNTNG
# peptide 2: FEDENFIL
# notes: Cyclophilin A (CypA), residues 99-109; Cyclophilin A (CypA), residues 83-90; A mixture of separate peptides; source: synthetic peptides, combined
# Biological target: T1, His-tagged Cyclophilin A (CypA) (UniProt P62937 1-165)
# T1 construct: Cyclophilin A (CypA), peptidyl-prolyl isomerase; Uniformly 15N-labelled for the NMR experiments, unlabelled elsewhere; also called CypA wild type; 15N-CypA; source: bacteria, IPTG-induced, purified (His-trap HP, size exclusion chromatography)
# Assay: ITC; AIF(370-394) 0.7 mM injected (20 x 2 μL) into CypA 5 μM, 25 °C, PBS 1X with 1 mM DTT, pH 7.4; single-site model; triplicate
# Conditions: both partners purified
# T1 sequence (P62937 whole entry): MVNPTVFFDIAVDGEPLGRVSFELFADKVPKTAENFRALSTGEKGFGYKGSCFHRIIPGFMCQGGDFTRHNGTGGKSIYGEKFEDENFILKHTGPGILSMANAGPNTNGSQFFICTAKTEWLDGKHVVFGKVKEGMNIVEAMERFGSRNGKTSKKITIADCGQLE
row,Kd,Binder
1,6 µM,B1

# Biological target: T1, His-tagged Cyclophilin A (CypA)
# Assay: EnSpire label-free direct binding assay; direct binding of CypA peptides, CypA or CypA R55A with AIF(370-394) or AIF(Δ1-121); details (who was immobilised) in the Supplementary Information
# Conditions: both partners purified
row,Kd,Binder
1,3 ± 0.6 µM,B1

# Biological target: T2, CypA R55A mutant (UniProt P62937 1-165, R55A)
# T2 construct: Cyclophilin A (CypA) with R55A; the R55A mutant corresponding to His-tagged CypA; The starting construct carried a Myc tag; also called R55A CypA mutant; R55A mutated CypA; source: prepared starting from the construct pCMV6-AC-Myc-CypA^R55A
# Assay: as above
# Conditions: both partners purified
# T2 sequence (P62937 whole entry R55A): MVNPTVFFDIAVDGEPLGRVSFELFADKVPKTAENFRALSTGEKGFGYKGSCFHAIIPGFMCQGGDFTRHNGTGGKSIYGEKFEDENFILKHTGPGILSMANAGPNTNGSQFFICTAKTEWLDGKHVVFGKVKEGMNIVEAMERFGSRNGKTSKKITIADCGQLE
row,Kd,Binder
1,3.1 ± 0.7 µM,B1

# Biological target: T3, Apoptosis Inducing Factor, pro-apoptotic form AIF(Δ1-121) (UniProt O95831 122-613)
# T3 construct: also called apoptogenic form of AIF
# Assay: as above
# Conditions: both partners purified
# T3 sequence (O95831 122-613, stated change not applied): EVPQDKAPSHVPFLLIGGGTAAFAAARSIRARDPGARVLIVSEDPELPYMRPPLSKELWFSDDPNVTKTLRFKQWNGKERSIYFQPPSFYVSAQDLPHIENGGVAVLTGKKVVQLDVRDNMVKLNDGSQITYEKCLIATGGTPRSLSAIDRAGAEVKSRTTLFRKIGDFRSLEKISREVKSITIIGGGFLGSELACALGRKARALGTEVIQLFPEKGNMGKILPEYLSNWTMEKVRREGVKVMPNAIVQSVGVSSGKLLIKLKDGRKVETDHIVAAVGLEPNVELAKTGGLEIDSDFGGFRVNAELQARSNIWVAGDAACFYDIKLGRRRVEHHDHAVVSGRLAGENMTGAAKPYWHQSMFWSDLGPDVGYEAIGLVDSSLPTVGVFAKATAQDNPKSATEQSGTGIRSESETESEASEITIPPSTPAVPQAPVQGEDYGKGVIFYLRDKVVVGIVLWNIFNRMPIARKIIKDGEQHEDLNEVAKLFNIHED
row,Kd,Binder
1,27.2 ± 5.8 µM,B2
2,38.8 ± 4.6 µM,B3
3,51.4 ± 12.2 µM,B4
4,2.8 ± 0.9 µM,B5
5,25.2 ± 5 µM,B6
6,> 1000 µM,B7
7,31.3 ± 2.8 µM,B8
8,2.2 ± 0.7 µM,B9

# Biological target: B1
# Assay: as above
# Conditions: both partners purified
row,Kd,Binder
1,43 ± 6.8 µM,B2
2,268 ± 9.65 µM,B3
3,34.9 ± 8.1 µM,B4
4,3.1 ± 1.3 µM,B5
5,304 ± 10.8 µM,B10
6,20.7 ± 6.5 µM,B6
7,87 ± 5.8 µM,B8
8,4.6 ± 1.3 µM,B9
